Where a chain is given by its changes, count along the chain named.
B1: hu37D3-H9.v76 (antibody, V domains shown)
VH: EVQLVESGGGLVQPGGSLRLSCAASGLIFRSYGMSWVRQAPGKGLEWVATINSGGTRTYYPDSVKGRFTISRDNSKNTLYLQMNSLRAEDTAVYYCANSYSGAMDYWGQGTLVTVSS
VL: DDLLTQTPLSLPVTPGQPASISCRSSQSIVHSNGNTYLEWYLQKPGQSPQLLIYKVSNRFSGVPDRFSGSGSGTDFTLKISRVEAEDVGVYYCFQGTLVPWTFGQGTKVEIK
B2: hu37D3-H9.v83 (antibody, V domains shown)
VH: B1 VH with V5L
VL: B1 VL with T7S, P15L, L42Q, K44R, Q50R
B3: hu37D3-H9.v93 (antibody, V domains shown)
VH: B1 VH
VL: EDLLTQSPSSLSASVGDRVTITCRSSQSIVHSNGNTYLEWYQQKPGKSPKLLIYKVSNRFSGVPSRFSGSGSGTDFTLTISSLQPEDFATYYCFQGTLVPWTFGQGTKVEIK

target: Cynomolgus monkey Tau monomer (cynomolgus monkey); experiment: SPR 37C, hIgG captured, cyno Tau monomer 0.1-33.3 nM
Sequence (P10636 other isoform, or with tags, fused parts or gaps): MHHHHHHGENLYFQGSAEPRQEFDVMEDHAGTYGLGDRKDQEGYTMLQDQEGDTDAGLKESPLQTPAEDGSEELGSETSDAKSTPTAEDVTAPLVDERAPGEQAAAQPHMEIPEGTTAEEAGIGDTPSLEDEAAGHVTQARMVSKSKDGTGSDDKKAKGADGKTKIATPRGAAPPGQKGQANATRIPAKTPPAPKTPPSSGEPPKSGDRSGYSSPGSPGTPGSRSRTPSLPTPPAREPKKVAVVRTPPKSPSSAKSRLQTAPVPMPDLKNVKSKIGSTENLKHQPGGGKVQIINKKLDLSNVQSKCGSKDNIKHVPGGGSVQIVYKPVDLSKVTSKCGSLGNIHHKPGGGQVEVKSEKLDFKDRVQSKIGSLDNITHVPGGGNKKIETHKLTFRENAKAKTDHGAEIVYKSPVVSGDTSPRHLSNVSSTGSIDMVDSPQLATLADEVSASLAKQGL

Binder	Kd [pM]	koff [s⁻¹]	kon [M⁻¹ s⁻¹]
B1	100	0.00114	9.27e+06
B2	100	0.00114	9.55e+06
B3	100	0.00178	1.29e+07

— patent publication US20230043289A1
